Assay [1] deals with T1, (GA)15: H-CHHHHHH(GA)15-OH.
T1 construct: synthetic, not coupled to BSA; also called poly-GA DPR protein peptide
T1 peptide: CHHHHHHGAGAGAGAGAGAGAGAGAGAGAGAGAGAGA
Briefly: indirect ELISA, uncoupled peptide coated, antibody titrated [also D00012 FIG. 3C]. As to the method:
In brief, dipeptide repeat proteins were synthesized and purified by Schafer-N(Copenhagen, Denmark): (GA)₁₅: H-CHHHHHH(GA)₁₅-OH; (GP)₁₅: H-C(GP)₁₅-OH; (GR)₁₅: H-C(GR)₁₅-OH; (PA)₁₅: H-C(PA)₁₅-OH; (PR)₁₅: H—C(PR)₁₅-OH. DPR protein peptides were then conjugated via a bifunctional linker (SMCC) to bovine serum albumin (BSA). 96-well microplates (Corning Incorporated, Corning, USA) were coated with BSA-coupled or -uncoupled dipeptide repeat protein peptides at a concentration of either 5 μg/ml or 20 μg/ml in coating buffer (15 mM Na₂CO₃, 35 mM NaHCO₃, pH 9.42). Non-specific binding sites were blocked for 1 h at room temperature with PBS/0.1% Tween®-20 containing 2% BSA (Sigma-Aldrich, Buchs, Switzerland). Primary antibodies were diluted to the indicated concentrations and incubated 1 h at room temperature, followed by incubation with a donkey anti-human IgG Fcγ-specific antibody conjugated with HRP (Jackson ImmunoResearch Laboratories, Inc., West Grove, USA). Binding was determined by measurement of HRP activity in a standard colorimetric assay. EC₅₀ values were estimated by non-linear regression using GraphPad Prism software (San Diego, USA).

A further assay concerns the target T2, GP10: H-(GP)10HHHHHH-NH2 (C-terminal amide).
T2 peptide: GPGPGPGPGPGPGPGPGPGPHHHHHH
Description: indirect ELISA, coated His-tagged peptide; indirect ELISA, peptide coated directly on the plate. The text has this:
(§1) In brief, dipeptide repeat proteins were synthesized and purified by Schafer-N (Copenhagen, Denmark): GA₂₀: H-(GA)₂₀HHHHHH-NH₂; GA₁₀: H-(GA)₁₀HHHHHH-NH₂; GA₆: H-(GA)₆HHHHHH-NH₂; GA₅: H-(GA)₅HHHHHH-NH₂; GA₄: H-(GA)₄HHHHHH-NH₂; GA₃: H-(GA)₃HHHHHH-NH₂; GA₂: H-(GA)₂HHHHHH-NH₂; GP₂₀: H-(GP)₂₀HHHHHH-NH₂; GP₁₀: H-(GP)₁₀HHHHHH-NH₂; GP₆: H-(GP)₆HHHHHH-NH₂; GP₅: H-(GP)₅HHHHHH-NH₂; GP₄: H-(GP)₄HHHHHH-NH₂; GP₃: H-(GP)₃HHHHHH-NH₂; GP₂: H-(GP)₂HHHHHH-NH₂. GR₂₀: H-(GR)₂₀HHHHHH-NH₂; GR₁₀: H-(GR)₁₀HHHHHH-NH₂; GR₆: H-(GR)₆HHHHHH-NH₂; GR₅: H-(GR)₅HHHHHH-NH₂; GR₄: H-(GR)₄HHHHHH-NH₂; GR₃: H-(GR)₃HHHHHH-NH₂; GR₂: H-(GR)₂HHHHHH-NH₂; PA₂₀: H-(PA)₂₀HHHHHH-NH₂; PA₁₀: H-(PA)₁₀HHHHHH-NH₂; PA₆: H-(PA)₆HHHHHH-NH₂; PA₅: H-(PA)₅HHHHHH-NH₂; PA₄: H-(PA)₄HHHHHH-NH₂; PA₃: H-(PA)₃HHHHHH-NH₂; PA₂: H-(PA)₂HHHHHH-NH₂; PR₂₀: H-(PR)₂₀HHHHHH-NH₂; PR₁₀: H-(PR)₁₀HHHHHH-NH₂; PR₆: H-(PR)₆HHHHHH-NH₂; PR₅: H-(PR)₅HHHHHH-NH₂; PR₄: H-(PR)₄HHHHHH-NH₂; PR₃: H-(PR)₃HHHHHH-NH₂; PR₂: H-(PR)₂HHHHHH-NH₂. 96-well microplates (Corning Incorporated, Corning, USA) were coated with dipeptide repeat protein peptides at a concentration of 50 μg/ml in coating buffer (15 mM Na₂CO₃, 35 mM NaHCO₃, pH 9.42). Non-specific binding sites were blocked for 1 h at room temperature with PBS/0.1% Tween®-20 containing 2% BSA (Sigma-Aldrich, Buchs, Switzerland). Primary antibodies were diluted to the indicated concentrations and incubated 1 h at room temperature, followed by incubation with a donkey anti-human IgG Fcγ-specific antibody conjugated with HRP (Jackson ImmunoResearch Laboratories, Inc., West Grove, USA). Binding was determined by measurement of HRP activity in a standard colorimetric assay. EC₅₀ values were estimated by non-linear regression using GraphPad Prism software (San Diego, USA).

A further assay addresses T3, GP6: H-(GP)6HHHHHH-NH2.
T3 peptide: H-GPGPGPGPGPGPHHHHHH-NH2
The assay is described as above.
Source text: as §1

The target in another assay is T4, GP5: H-(GP)5HHHHHH-NH2.
T4 peptide: H-GPGPGPGPGPHHHHHH-NH2
Described as above.
Source text: as §1

A further assay concerns the target T5, GA4: H-(GA)4HHHHHH-NH2.
T5 peptide: H-GAGAGAGAHHHHHH-NH2
Briefly: indirect ELISA, His-tagged peptide coated at 50 ug/ml, antibody titrated [also D00027 FIG. 7M].
Source text: as §1

For the next assay, the target named is T6, GA5: H-(GA)5HHHHHH-NH2.
T6 peptide: H-GAGAGAGAGAHHHHHH-NH2
The description is as above.
Source text: as §1

A further assay concerns the target T7, GA3: H-(GA)3HHHHHH-NH2.
T7 peptide: H-GAGAGAHHHHHH-NH2
Described as above.
Source text: as §1

For the next assay, the target named is T8, GA2: H-(GA)2HHHHHH-NH2.
T8 peptide: H-GAGAHHHHHH-NH2
The description is as above.
Source text: as §1

B1: NI-308.15O7 (antibody, V domains shown)
VH: QVQLVESGGGVVQPGRSLRLSCAASGFTFSNHAMHWVRQAPGKGLEWVAVISYDGENTYYADSIEGRFTISRDNFKNTLFLQMYSLTADDTAMYFCARGGRRGHFTSYYLDYWGQGTLVTVSS
VL: CDIQMTQSPSSLSASVGDRVTITCRASQNIDKYLNWYQQIPGKAPKLLIYAASSLHSGVPSRFSGSGSGTDFSLTISSLQPEDFAIYYCQQSYSSFRTFGQGTKLEIK
B1 had a concentration for a half-maximal effect (EC50) in assay [1] of 0.18 nM. This counts as sub-nanomolar.

B2: NI-308.5G2 (antibody, V domains shown)
VH: EVQLVQSGADLRNPGASVTVSCTASGYHFADNAINWLRQAPGQRLEWMGWINIYSGNTKYSQNFQGRVTFTRNTSASTAFMHLRSLRSEDTAVYFCARDPDSSGYYLPYFDYWGQGTLVTVSS
VL: DIQLTQSPDSLTLSLGERATINCKSSQSVFYNSNNKNYLAWYQQKPGQPPKLLMYWASTRESGVTDRFSGSGSGTDFTLTITNLQAEDVAVYYCQQFYSSPLTFGGGTKVEIK
notes: Recombinant complete human IgG1, kappa
Consider B2, for which the EC50 was 0.94 nM with GP10: H-(GP)10HHHHHH-NH2, 26.8 nM with GP6: H-(GP)6HHHHHH-NH2 and more than 200 nM in the assay with GP5: H-(GP)5HHHHHH-NH2.

B3: NI-308.6B11 (antibody, V domains shown)
VH: EVQLVQSGAEVKRPGASVKVSCKVSGYTLTELSMHWVRQAPGKGLEWMGGFDPEDGETVYAQKFQGRVTMTEDTSTDTAYMELSSLRSEDTALYHCATYGSSWHWNEGNEGSYYFDYWGQGTLVTVSS
VL: CDIQMTQSPSSLSASVGDRVTITCQASQDISIYLNWYQQKPGKAPKLLIYDASNLETGVPSRFSGSGSGTDFTFTISGLQPEDVARYYCQQYDDLPITFGQGTRLEIK
notes: as for B2
Take B3: the binding result with GA4: H-(GA)4HHHHHH-NH2, in the assay with GA5: H-(GA)5HHHHHH-NH2, in the assay with GA3: H-(GA)3HHHHHH-NH2 and with GA2: H-(GA)2HHHHHH-NH2 was “no binding (tested: about 4x10^5 pM (last point))” each time.

(Values after US20200010567A1 (NEURIMMUNE, published 2020).)
